# From patent US20160251386A1 (published 2016)
# B1: secreted form of the factor with tags (94 AA+tags) expressed in E. coli (other)
# chain: MEPLAVVDLRPQSSVKVEVHFQDKVEEMSIRLDQTVAELKKHLKTVVQLSTSNMLLFYLDQEAPFGPEEMKYSSRALHSYGIRDGDKIYVEPRMKDDDDKKGEFEAYVEQKLISEEDLNSAVDHHHHHH
# notes: Expressed from pTrcHis2-TOPO in E. coli, purified on nickel columns; carries no lipid cofactor; runs at 16 kD with a 32 kD dimer band; also called free factor made in E. coli; E. coli expressed secreted form of the factor
# Target: the molecule itself
# Experiment: SDS gel and Western blot, self-association (dimer band)
protein,measurement,value
B1,binding result,binds
